This is an account of results in US7034002.

For the experiment, the target named is Angiotensin converting enzyme (rabbit lung acetone powder, Sigma; supernatant of the extract) (rabbit) (UniProt P12822). In words: cell-based or functional assay.
UniProt P12822, sequence (P12822 34-1310 limits assumed): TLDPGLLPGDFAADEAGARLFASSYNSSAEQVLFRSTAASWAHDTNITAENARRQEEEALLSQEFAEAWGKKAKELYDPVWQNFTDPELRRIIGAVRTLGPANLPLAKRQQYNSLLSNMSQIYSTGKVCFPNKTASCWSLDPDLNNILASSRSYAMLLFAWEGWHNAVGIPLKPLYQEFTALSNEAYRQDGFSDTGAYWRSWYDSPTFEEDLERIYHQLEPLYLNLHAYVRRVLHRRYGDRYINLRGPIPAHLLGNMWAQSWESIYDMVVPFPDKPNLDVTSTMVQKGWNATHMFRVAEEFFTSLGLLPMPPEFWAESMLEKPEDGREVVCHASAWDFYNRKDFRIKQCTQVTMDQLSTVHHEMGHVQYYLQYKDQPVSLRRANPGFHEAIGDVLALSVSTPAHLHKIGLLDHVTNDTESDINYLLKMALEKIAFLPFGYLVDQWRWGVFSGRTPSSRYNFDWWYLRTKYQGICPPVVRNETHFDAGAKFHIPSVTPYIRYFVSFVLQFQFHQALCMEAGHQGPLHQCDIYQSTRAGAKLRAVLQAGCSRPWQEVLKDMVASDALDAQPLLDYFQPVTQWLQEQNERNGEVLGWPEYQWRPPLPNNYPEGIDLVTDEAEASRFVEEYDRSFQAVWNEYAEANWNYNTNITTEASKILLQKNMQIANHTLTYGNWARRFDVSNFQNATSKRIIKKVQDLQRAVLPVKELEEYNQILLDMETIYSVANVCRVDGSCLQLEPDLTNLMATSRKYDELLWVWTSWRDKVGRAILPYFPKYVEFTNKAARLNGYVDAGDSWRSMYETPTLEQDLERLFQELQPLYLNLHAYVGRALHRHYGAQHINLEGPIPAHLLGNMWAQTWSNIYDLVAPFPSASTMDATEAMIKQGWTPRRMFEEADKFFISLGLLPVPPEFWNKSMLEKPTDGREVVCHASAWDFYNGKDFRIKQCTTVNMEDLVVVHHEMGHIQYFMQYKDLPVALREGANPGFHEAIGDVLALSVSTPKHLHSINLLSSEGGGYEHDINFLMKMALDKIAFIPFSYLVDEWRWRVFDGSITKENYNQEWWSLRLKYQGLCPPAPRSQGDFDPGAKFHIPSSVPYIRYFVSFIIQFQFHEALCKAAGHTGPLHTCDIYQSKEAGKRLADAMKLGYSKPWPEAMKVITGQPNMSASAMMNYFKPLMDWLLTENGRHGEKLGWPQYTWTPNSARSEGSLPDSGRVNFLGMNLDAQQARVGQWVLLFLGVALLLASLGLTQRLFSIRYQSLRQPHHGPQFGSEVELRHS

Substance “Fraction E-1: concentrated thermolysin hydrolysate of the hot-water-extracted residue of dried bonito” displayed an IC50 (angiotensin converting enzyme inhibitory activity, Bz-Gly-His-Leu substrate, OD228 of hippuric acid) of 80 µg/mL.
The substance “Fraction E-2: membrane-concentrated fraction of E-1” had an IC50 (angiotensin converting enzyme inhibitory activity, Bz-Gly-His-Leu substrate, OD228 of hippuric acid) of 300 µg/mL.
Take “Fraction E-3: membrane-penetrating fraction of E-1”: the IC50 (angiotensin converting enzyme inhibitory activity, Bz-Gly-His-Leu substrate, OD228 of hippuric acid) is 30 µg/mL.
With “Fraction E-4: ethanol precipitate of E-1”, the IC50 (angiotensin converting enzyme inhibitory activity, Bz-Gly-His-Leu substrate, OD228 of hippuric acid) amounted to 200 µg/mL.
The same measure for “Fraction E-5: ethanol-soluble fraction of E-1”: 40 µg/mL.
The same measure for “Fraction E-6: concentrated thermolysin hydrolysate of homogenized dried bonito”: 110 µg/mL; for “Fraction E-7: membrane-concentrated fraction of E-6”: 310 µg/mL.
The substance “Fraction E-8: membrane-penetrating fraction of E-6” returned an IC50 (angiotensin converting enzyme inhibitory activity, Bz-Gly-His-Leu substrate, OD228 of hippuric acid) of 35 µg/mL.
Substance “Fraction E-9: ethanol precipitate of E-6” gave an IC50 (angiotensin converting enzyme inhibitory activity, Bz-Gly-His-Leu substrate, OD228 of hippuric acid) of 200 µg/mL.
On to “Fraction E-10: ethanol-soluble fraction of E-6”, for which the IC50 (angiotensin converting enzyme inhibitory activity, Bz-Gly-His-Leu substrate, OD228 of hippuric acid) amounted to 50 µg/mL.
